PMC9482650, “Quantitative fragmentomics allow affinity mapping of interactomes” (Nature Communications, 2022)
Changes are numbered by the printed parent chain.

T1: APBA1_1, Q02410
T1 sequence (Q02410 651-752, limits assumed, looked up): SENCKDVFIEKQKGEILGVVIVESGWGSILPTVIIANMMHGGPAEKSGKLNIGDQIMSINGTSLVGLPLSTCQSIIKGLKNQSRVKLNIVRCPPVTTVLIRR

T2: ARHGAP21, Q5T5U3
T2 sequence (Q5T5U3 45-169, limits assumed, looked up): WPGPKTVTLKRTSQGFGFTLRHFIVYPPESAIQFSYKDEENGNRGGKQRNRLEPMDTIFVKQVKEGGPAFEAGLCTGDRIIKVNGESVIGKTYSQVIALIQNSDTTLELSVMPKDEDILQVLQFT

T3: DFNB31_2, Q9P202
T3 sequence (Q9P202 274-371, limits assumed, looked up): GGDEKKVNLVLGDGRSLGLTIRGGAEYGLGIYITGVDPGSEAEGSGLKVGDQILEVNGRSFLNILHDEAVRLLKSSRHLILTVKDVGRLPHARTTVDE

T4: DLG3_2, Q92796
T4 sequence (Q92796 221-321, limits assumed, looked up): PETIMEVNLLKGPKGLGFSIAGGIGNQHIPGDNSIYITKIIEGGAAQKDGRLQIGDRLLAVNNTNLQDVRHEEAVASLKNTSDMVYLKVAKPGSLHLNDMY

T5: GRIP1_3, Q9Y3R0
T5 sequence (Q9Y3R0 247-346, limits assumed, looked up): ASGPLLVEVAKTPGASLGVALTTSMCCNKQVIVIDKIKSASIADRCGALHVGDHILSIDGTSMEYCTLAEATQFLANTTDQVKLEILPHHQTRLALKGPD

T6: GRIP1_4, Q9Y3R0
T6 sequence (Q9Y3R0 467-571, limits assumed, looked up): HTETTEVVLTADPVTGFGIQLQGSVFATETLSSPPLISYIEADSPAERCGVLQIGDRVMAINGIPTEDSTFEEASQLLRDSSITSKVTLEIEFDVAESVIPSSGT

T7: HTRA3, P83110
T7 sequence (P83110 354-453, limits assumed, looked up): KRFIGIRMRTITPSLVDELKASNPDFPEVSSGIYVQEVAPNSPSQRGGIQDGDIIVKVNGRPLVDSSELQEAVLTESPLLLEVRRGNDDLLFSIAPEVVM

T8: LIN7B, Q9HAP6
T8 sequence (Q9HAP6 88-185, limits assumed, looked up): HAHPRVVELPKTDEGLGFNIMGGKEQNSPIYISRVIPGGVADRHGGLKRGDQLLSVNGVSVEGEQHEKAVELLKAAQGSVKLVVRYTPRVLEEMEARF

T9: LIN7C, Q9NUP9
T9 sequence (Q9NUP9 88-185, limits assumed, looked up): T8 sequence (Q9HAP6 88-185, limits assumed, looked up) with A2S, D13E, V35I, V40I, Q65H, S79K, R89K, A96S

T10: MPP7, Q5T2T1
T10 sequence (Q5T2T1 134-230, limits assumed, looked up): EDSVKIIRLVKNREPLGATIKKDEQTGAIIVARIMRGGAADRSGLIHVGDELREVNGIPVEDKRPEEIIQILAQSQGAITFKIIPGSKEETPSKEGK

T11: PDZRN3_1, Q9UPQ7
T11 sequence (Q9UPQ7 244-349, limits assumed, looked up): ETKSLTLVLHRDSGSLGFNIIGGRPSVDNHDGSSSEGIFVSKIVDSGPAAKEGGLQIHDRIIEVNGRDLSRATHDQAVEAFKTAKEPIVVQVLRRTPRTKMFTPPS


Molecular target: T1, APBA1_1, Q02410
Assay: holdup assay
Parameters: key: below the threshold = too weak to quantify, mostly under pKd 3.1 to 4
Conditions: plain residues with an end cap or a label only (N-terminal biotin on a linker: ado-ado)

pKd	Binder
below the threshold	PKRSFIESNV [TANC1, Q9C0D5]

Molecular target: T2, ARHGAP21, Q5T5U3
Assay: holdup assay
Parameters: key: below the threshold = too weak to quantify, mostly under pKd 3.1 to 4
Conditions: plain residues with an end cap or a label only (N-terminal biotin on a linker: ado-ado)

pKd	Binder
3.85	PKRSFIESNV [TANC1, Q9C0D5]

Molecular target: CASK, O14936
Sequence (O14936 487-570): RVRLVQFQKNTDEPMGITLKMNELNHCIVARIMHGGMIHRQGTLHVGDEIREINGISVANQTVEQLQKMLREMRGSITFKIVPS
Assay: holdup assay
Parameters: key: below the threshold = too weak to quantify, mostly under pKd 3.1 to 4
Conditions: plain residues with an end cap or a label only (N-terminal biotin on a linker: ado-ado)

pKd	Binder
below the threshold	PKRSFIESNV [TANC1, Q9C0D5]

Molecular target: T3, DFNB31_2, Q9P202
Assay: holdup assay
Parameters: key: below the threshold = too weak to quantify, mostly under pKd 3.1 to 4
Conditions: plain residues with an end cap or a label only (N-terminal biotin on a linker: ado-ado)

pKd	Binder
below the threshold	PKRSFIESNV [TANC1, Q9C0D5]

Molecular target: T4, DLG3_2, Q92796
Assay: holdup assay
Parameters: key: below the threshold = too weak to quantify, mostly under pKd 3.1 to 4
Conditions: plain residues with an end cap or a label only (N-terminal biotin on a linker: ado-ado)

pKd	Binder
4.77	PKRSFIESNV [TANC1, Q9C0D5]

Molecular target: DLG4_1, P78352
Sequence (P78352 62-152): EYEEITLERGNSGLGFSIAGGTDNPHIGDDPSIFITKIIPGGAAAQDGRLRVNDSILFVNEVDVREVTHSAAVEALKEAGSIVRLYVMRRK
Assay: holdup assay
Parameters: key: below the threshold = too weak to quantify, mostly under pKd 3.1 to 4
Conditions: plain residues with an end cap or a label only (N-terminal biotin on a linker: ado-ado)

pKd	Binder
4.73	PKRSFIESNV [TANC1, Q9C0D5]

Molecular target: FRMPD3, Q5JV73
Sequence (Q5JV73 12-100): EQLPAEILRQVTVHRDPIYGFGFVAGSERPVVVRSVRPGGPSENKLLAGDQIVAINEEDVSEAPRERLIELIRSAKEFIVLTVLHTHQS
Assay: holdup assay
Parameters: key: below the threshold = too weak to quantify, mostly under pKd 3.1 to 4
Conditions: plain residues with an end cap or a label only (N-terminal biotin on a linker: ado-ado)

pKd	Binder
below the threshold	PKRSFIESNV [TANC1, Q9C0D5]

Molecular target: FRMPD4, Q14CM0
Sequence (Q14CM0 67-160): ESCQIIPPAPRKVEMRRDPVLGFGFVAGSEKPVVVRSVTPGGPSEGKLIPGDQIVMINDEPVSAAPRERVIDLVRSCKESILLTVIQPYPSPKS
Assay: holdup assay
Parameters: key: below the threshold = too weak to quantify, mostly under pKd 3.1 to 4
Conditions: plain residues with an end cap or a label only (N-terminal biotin on a linker: ado-ado)

pKd	Binder
below the threshold	PKRSFIESNV [TANC1, Q9C0D5]

Molecular target: GIPC2, Q8TF65
Sequence (Q8TF65 112-203): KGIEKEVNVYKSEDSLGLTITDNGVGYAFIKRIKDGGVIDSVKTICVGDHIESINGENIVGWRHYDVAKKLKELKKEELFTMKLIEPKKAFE
Assay: holdup assay
Parameters: key: below the threshold = too weak to quantify, mostly under pKd 3.1 to 4
Conditions: plain residues with an end cap or a label only (N-terminal biotin on a linker: ado-ado)

pKd	Binder
3.83	PKRSFIESNV [TANC1, Q9C0D5]

Molecular target: GORASP1, Q9BQQ3
Sequence (Q9BQQ3 1-208): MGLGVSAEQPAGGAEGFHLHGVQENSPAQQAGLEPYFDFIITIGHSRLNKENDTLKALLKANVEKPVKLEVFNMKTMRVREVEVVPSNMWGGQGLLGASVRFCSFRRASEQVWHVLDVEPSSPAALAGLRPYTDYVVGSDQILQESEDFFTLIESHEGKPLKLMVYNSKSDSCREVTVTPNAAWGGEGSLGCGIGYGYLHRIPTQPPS
Assay: holdup assay
Parameters: key: below the threshold = too weak to quantify, mostly under pKd 3.1 to 4
Conditions: plain residues with an end cap or a label only (N-terminal biotin on a linker: ado-ado)

pKd	Binder
below the threshold	PKRSFIESNV [TANC1, Q9C0D5]

Molecular target: GORASP2, Q9H8Y8
Assay: holdup assay
Parameters: key: below the threshold = too weak to quantify, mostly under pKd 3.1 to 4
Conditions: plain residues with an end cap or a label only (N-terminal biotin on a linker: ado-ado)

pKd	Binder
4.06	PKRSFIESNV [TANC1, Q9C0D5]

Molecular target: GRID2IP_1, A4D2P6
Sequence (A4D2P6 1-87): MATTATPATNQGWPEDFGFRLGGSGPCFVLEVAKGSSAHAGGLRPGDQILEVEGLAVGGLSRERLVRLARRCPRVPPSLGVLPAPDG
Assay: holdup assay
Parameters: key: below the threshold = too weak to quantify, mostly under pKd 3.1 to 4
Conditions: plain residues with an end cap or a label only (N-terminal biotin on a linker: ado-ado)

pKd	Binder
below the threshold	PKRSFIESNV [TANC1, Q9C0D5]

Molecular target: T5, GRIP1_3, Q9Y3R0
Assay: holdup assay
Parameters: key: below the threshold = too weak to quantify, mostly under pKd 3.1 to 4
Conditions: plain residues with an end cap or a label only (N-terminal biotin on a linker: ado-ado)

pKd	Binder
below the threshold	PKRSFIESNV [TANC1, Q9C0D5]

Molecular target: T6, GRIP1_4, Q9Y3R0
Assay: holdup assay
Parameters: key: below the threshold = too weak to quantify, mostly under pKd 3.1 to 4
Conditions: plain residues with an end cap or a label only (N-terminal biotin on a linker: ado-ado)

pKd	Binder
below the threshold	PKRSFIESNV [TANC1, Q9C0D5]

Molecular target: GRIP2_5, Q9C0E4
Sequence (Q9C0E4 544-642): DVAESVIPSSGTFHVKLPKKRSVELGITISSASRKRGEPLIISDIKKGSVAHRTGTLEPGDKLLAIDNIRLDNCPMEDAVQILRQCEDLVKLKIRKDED
Assay: holdup assay
Parameters: key: below the threshold = too weak to quantify, mostly under pKd 3.1 to 4
Conditions: plain residues with an end cap or a label only (N-terminal biotin on a linker: ado-ado)

pKd	Binder
below the threshold	PKRSFIESNV [TANC1, Q9C0D5]

Molecular target: T7, HTRA3, P83110
Assay: holdup assay
Parameters: key: below the threshold = too weak to quantify, mostly under pKd 3.1 to 4
Conditions: plain residues with an end cap or a label only (N-terminal biotin on a linker: ado-ado)

pKd	Binder
below the threshold	PKRSFIESNV [TANC1, Q9C0D5]

Molecular target: Inadl_2, Q8NI35
Sequence (Q8NI35 238-335): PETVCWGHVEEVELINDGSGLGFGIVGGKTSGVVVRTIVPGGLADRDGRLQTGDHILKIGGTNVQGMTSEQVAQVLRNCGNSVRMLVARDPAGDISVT
Assay: holdup assay
Parameters: key: below the threshold = too weak to quantify, mostly under pKd 3.1 to 4
Conditions: plain residues with an end cap or a label only (N-terminal biotin on a linker: ado-ado)

pKd	Binder
below the threshold	PKRSFIESNV [TANC1, Q9C0D5]

Molecular target: T8, LIN7B, Q9HAP6
Assay: holdup assay
Parameters: key: below the threshold = too weak to quantify, mostly under pKd 3.1 to 4
Conditions: plain residues with an end cap or a label only (N-terminal biotin on a linker: ado-ado)

pKd	Binder
below the threshold	PKRSFIESNV [TANC1, Q9C0D5]

Molecular target: T9, LIN7C, Q9NUP9
Assay: holdup assay
Parameters: key: below the threshold = too weak to quantify, mostly under pKd 3.1 to 4
Conditions: plain residues with an end cap or a label only (N-terminal biotin on a linker: ado-ado)

pKd	Binder
below the threshold	PKRSFIESNV [TANC1, Q9C0D5]

Molecular target: LNX1_1, Q8TBB1
Sequence (Q8TBB1 261-371): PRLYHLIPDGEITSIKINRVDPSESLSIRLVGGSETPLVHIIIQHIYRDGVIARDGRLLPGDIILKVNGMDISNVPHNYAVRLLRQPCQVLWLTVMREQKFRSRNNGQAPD
Assay: holdup assay
Parameters: key: below the threshold = too weak to quantify, mostly under pKd 3.1 to 4
Conditions: plain residues with an end cap or a label only (N-terminal biotin on a linker: ado-ado)

pKd	Binder
4.08	PKRSFIESNV [TANC1, Q9C0D5]

Molecular target: MAGI2_3, Q86UL8
Sequence (Q86UL8 600-682): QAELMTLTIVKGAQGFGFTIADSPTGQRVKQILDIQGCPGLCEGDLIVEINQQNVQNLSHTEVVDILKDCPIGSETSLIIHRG
Assay: holdup assay
Parameters: key: below the threshold = too weak to quantify, mostly under pKd 3.1 to 4
Conditions: plain residues with an end cap or a label only (N-terminal biotin on a linker: ado-ado)

pKd	Binder
3.98	PKRSFIESNV [TANC1, Q9C0D5]

Molecular target: MAGI2_4, Q86UL8
Sequence (Q86UL8 772-865): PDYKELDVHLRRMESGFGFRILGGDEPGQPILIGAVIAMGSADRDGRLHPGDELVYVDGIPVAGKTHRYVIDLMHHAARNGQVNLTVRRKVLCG
Assay: holdup assay
Parameters: key: below the threshold = too weak to quantify, mostly under pKd 3.1 to 4
Conditions: plain residues with an end cap or a label only (N-terminal biotin on a linker: ado-ado)

pKd	Binder
below the threshold	PKRSFIESNV [TANC1, Q9C0D5]

Molecular target: T10, MPP7, Q5T2T1
Assay: holdup assay
Parameters: key: below the threshold = too weak to quantify, mostly under pKd 3.1 to 4
Conditions: plain residues with an end cap or a label only (N-terminal biotin on a linker: ado-ado)

pKd	Binder
below the threshold	PKRSFIESNV [TANC1, Q9C0D5]

Molecular target: NHERF4_2, Q86UT5
Sequence (Q86UT5 220-308): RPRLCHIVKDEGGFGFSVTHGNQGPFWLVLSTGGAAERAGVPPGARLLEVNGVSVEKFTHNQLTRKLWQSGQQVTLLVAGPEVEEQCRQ
Assay: holdup assay
Parameters: key: below the threshold = too weak to quantify, mostly under pKd 3.1 to 4
Conditions: plain residues with an end cap or a label only (N-terminal biotin on a linker: ado-ado)

pKd	Binder
below the threshold	PKRSFIESNV [TANC1, Q9C0D5]

Molecular target: T11, PDZRN3_1, Q9UPQ7
Assay: holdup assay
Parameters: key: below the threshold = too weak to quantify, mostly under pKd 3.1 to 4
Conditions: plain residues with an end cap or a label only (N-terminal biotin on a linker: ado-ado)

pKd	Binder
3.87	PKRSFIESNV [TANC1, Q9C0D5]
